According to paper PMC2725191:

Biological target: Biotinylated tubulin (bovine brain tubulin labelled with NHS-LC-biotin), held on a streptavidin layer (bovine) (UniProt Q6B856)
Assay: dual polarization interferometry

- rate of thickness increase after the inflection point (microtubule growth): 0.436 nm/min
Substance: Tubulin (alpha/beta heterodimer), purified from bovine brain (from UniProt Q6B856 1-445) (complex)
